Consider 9 molecules from article PMC3507735, “Cloning, expression and characterization of an aryl-alcohol dehydrogenase from the white-rot fungus Phanerochaete chrysosporium strain BKM-F-1767” (BMC Microbiology, 2012).

Data set [1] has as its target T1, Pc Aad1p (recombinant aryl-alcohol dehydrogenase, AAD1) (Phanerodontia chrysosporium, UniProt Q01752).
T1 sequence (Q01752 1-385): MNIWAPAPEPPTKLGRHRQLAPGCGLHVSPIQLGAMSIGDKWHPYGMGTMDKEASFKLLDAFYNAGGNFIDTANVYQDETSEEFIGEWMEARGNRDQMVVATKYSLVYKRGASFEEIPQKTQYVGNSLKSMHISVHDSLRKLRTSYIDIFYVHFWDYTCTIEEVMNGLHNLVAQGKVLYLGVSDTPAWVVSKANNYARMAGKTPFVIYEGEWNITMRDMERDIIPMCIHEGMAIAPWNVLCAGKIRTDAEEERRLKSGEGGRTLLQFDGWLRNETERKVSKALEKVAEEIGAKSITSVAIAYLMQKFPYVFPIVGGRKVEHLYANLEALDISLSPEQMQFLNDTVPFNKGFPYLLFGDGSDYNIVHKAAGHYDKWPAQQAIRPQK
Briefly: spectrophotometric NADPH oxidation at […] nm, fit to uncompetitive substrate inhibition equation. Format: biochemical. Also on record: full-length ORF (1155 bp) in pGS-21a; N-terminal His6-GST and C-terminal His6 tags kept; E. coli BL21 Star(DE3). The settings on record: substrate inhibition constant (uncompetitive); 0.3 mM NADPH, 50 mM MES pH 6.1, 30°C.

In data set [2] the target is T1, Pc Aad1p (recombinant aryl-alcohol dehydrogenase, AAD1). Briefly: spectrophotometric NADPH oxidation at […] nm, non-linear fit. The settings on record: read-out: KMμM; reduction; 0.3 mM NADPH, 50 mM MES pH 6.1, 30°C.
The subject of data set [3] is COc1ccc(C=O)cc1O. Briefly: purified protein. The settings on record: reduction, 0.3 mM NADPH, 50 mM MES pH 6.1, 30°C.
Substrate in data set [4]: COc1cc(C=O)ccc1O
Briefly: purified protein. The settings on record: reduction, 0.3 mM NADPH, 50 mM MES pH 6.1, 30°C.

Substrate in data set [5]: COc1cc(C=O)cc(OC)c1
Briefly: purified protein. The settings on record: reduction, 0.3 mM NADPH, 50 mM MES pH 6.1, 30°C.

Substrate in data set [6]: O=CCc1ccccc1
The data set can be described thus: purified protein. The settings on record: reduction, 0.3 mM NADPH, 50 mM MES pH 6.1, 30°C.

Substrate in data set [7]: O=Cc1ccccc1
Briefly: purified protein. The settings on record: reduction, 0.3 mM NADPH, 50 mM MES pH 6.1, 30°C.

Substrate in data set [8]: O=Cc1ccc(CO)o1
The data set can be described thus: purified protein. The settings on record: reduction, 0.3 mM NADPH, 50 mM MES pH 6.1, 30°C.

Substrate in data set [9]: COc1ccc(C=O)cc1OC
The data set can be described thus: purified protein. The settings on record: reduction, 0.3 mM NADPH, 50 mM MES pH 6.1, 30°C.

Substrate in data set [10]: NC(=O)c1ccc[n+]([C@@H]2O[C@H](COP(=O)(O)OP(=O)(O)OC[C@H]3O[C@@H](n4cnc5c(N)ncnc54)[C@H](OP(=O)(O)O)[C@@H]3O)[C@@H](O)[C@H]2O)c1
Briefly: purified protein. The class given is biochemical, Phanerodontia chrysosporium. The settings on record: 10 mM 3,4-dimethoxybenzyl alcohol, 100 mM Glycine-KOH pH 10.3, 30°C, varied: cofactor.

Substrate in data set [11]: COc1ccc(CO)cc1OC
The data set can be described thus: purified protein. Format: biochemical, Phanerodontia chrysosporium. The settings on record: oxidation, 0.3 mM NADP+, 100 mM Glycine-KOH pH 10.3, 30°C.

Substrate in data set [12]: COc1cc(CO)ccc1O
Briefly: purified protein. The class given is biochemical, Phanerodontia chrysosporium. The settings on record: oxidation, 0.3 mM NADP+, 100 mM Glycine-KOH pH 10.3, 30°C.

Substrate in data set [13]: NC(=O)C1=CN([C@@H]2O[C@H](COP(=O)(O)OP(=O)(O)OC[C@H]3O[C@@H](n4cnc5c(N)ncnc54)[C@H](O)[C@@H]3O)[C@@H](O)[C@H]2O)C=CC1
The data set can be described thus: purified protein. The settings on record: 0.2 mM 3,4-dimethoxybenzaldehyde, 50 mM MES pH 6.1, 30°C, varied: cofactor. The class given is biochemical, Phanerodontia chrysosporium.

Substrate in data set [14]: NC(=O)C1=CN([C@@H]2O[C@H](COP(=O)(O)OP(=O)(O)OC[C@H]3O[C@@H](n4cnc5c(N)ncnc54)[C@H](OP(=O)(O)O)[C@@H]3O)[C@@H](O)[C@H]2O)C=CC1
The data set can be described thus: purified protein. Format: biochemical, Phanerodontia chrysosporium. The settings on record: 0.2 mM 3,4-dimethoxybenzaldehyde, 50 mM MES pH 6.1, 30°C, varied: cofactor.

As to `O=C/C=C/c1ccccc1` [trans-Cinnamaldehyde], in data set [1], the KiμM turned out to be 3500 ± 1600 µM. The Km in data set [2] worked out at 3400 ± 1300 µM.
On to `O=Cc1ccccc1` [Benzaldehyde], for which, in data set [1], the KiμM came to 81000 ± 44000 µM.
`COc1ccc(C=O)cc1` [4-Methoxybenzaldehyde]: in data set [2], the Km stood at 90 ± 10 µM.
For `COc1cc(C=O)cc(OC)c1` [3,5-Dimethoxybenzaldehyde], in data set [1], the KiμM turned out to be 2100 ± 600 µM.
The same measure, in the same setting: the same measure for `COc1ccc(C=O)cc1O` [3-Hydroxy-4-methoxybenzaldehyde]: 2300 ± 1800 µM; for `COc1ccc(C=O)cc1OC` [3,4-Dimethoxybenzaldehyde]: 3400 ± 1100 µM.
On to `COc1cc(C=O)ccc1O` [4-Hydroxy-3-methoxybenzaldehyde], for which the KiμM in data set [1] was 5100 ± 2300 µM.
As a reminder, the kcat is the number of substrate molecules converted per active site and unit of time at saturation. Usually kcat/Km stands for the turnover number divided by the Michaelis constant. With “Pc Aad1p (recombinant aryl-alcohol dehydrogenase, AAD1) (Phanerodontia chrysosporium)”, in data set [3], the Km was determined as 1400 ± 900 µM, the kcat is 3.83 ± 1.83 s⁻¹ and the kcat/Km was 2670 M⁻¹ s⁻¹.

B1: Pc Aad1p (recombinant aryl-alcohol dehydrogenase, AAD1) (Phanerodontia chrysosporium) (protein)
chain: T1 sequence (Q01752 1-385)
notes: full-length ORF (1155 bp) in pGS-21a; N-terminal His6-GST and C-terminal His6 tags kept; E. coli BL21 Star(DE3)
In the case of B1, the Km in [4] amounted to 1400 ± 600 µM; in data set [5] it was 22 ± 4 µM; in [6], 530 ± 90 µM; in data set [7] it was 1700 ± 600 µM; in data set [8] it was 270 ± 40 µM; in data set [9], 12 ± 2 µM. Besides, the Km in [10] was 38 ± 7 µM; in data set [11] it was 370 ± 50 µM; in data set [12], 25000 ± 7000 µM; in [13], 220 ± 130 µM; in data set [14], 39 ± 5 µM. For the same molecule, the kcat in data set [4] was 3.33 ± 0.833 s⁻¹; in data set [5] it was 9.83 ± 0.5 s⁻¹; in data set [6] it was 11.2 ± 0.417 s⁻¹; in data set [7], 7.17 ± 0.833 s⁻¹; in [8] it was 2.93 ± 0.1 s⁻¹; in data set [9], 8.83 ± 0.417 s⁻¹. Besides, the turnover number (kcat) in data set [10] turned out to be 2.57 ± 0.12 s⁻¹; in data set [11], 2.55 ± 0.1 s⁻¹; in data set [12], 4.33 ± 1 s⁻¹; in data set [13], 2 ± 0.667 s⁻¹; in data set [14], 11.3 ± 0.5 s⁻¹. Moreover, the kcat/Km in data set [4] is 2330 M⁻¹ s⁻¹; in data set [5] it was 450000 M⁻¹ s⁻¹; in data set [6], 21700 M⁻¹ s⁻¹; in [7], 5000 M⁻¹ s⁻¹; in [8] it was 10800 M⁻¹ s⁻¹; in data set [9], 733000 M⁻¹ s⁻¹. The kcat/Km in data set [10] is 68300 M⁻¹ s⁻¹; in [11], 6830 M⁻¹ s⁻¹; in data set [12], 167 M⁻¹ s⁻¹; in data set [13], 10000 M⁻¹ s⁻¹; in data set [14], 283000 M⁻¹ s⁻¹.
